From patent US6465254, “Mutant loxP site and applications thereof” (Sumitomo Pharmaceuticals Company, Limited)

Columns and labels:
Cre recombinase [1] = target: T1, Cre recombinase (UniProt P06956 P06956:1-343); test: self x self; intermediate 2; settings: tags: expressed from recombinant adenovirus AxCANCre in 293 cells
Cre recombinase [2] = target: T1, Cre recombinase; test: self x self; intermediate 0; settings: tags: expressed from recombinant adenovirus AxCANCre in 293 cells

T1 sequence (P06956 whole entry, one chain of several): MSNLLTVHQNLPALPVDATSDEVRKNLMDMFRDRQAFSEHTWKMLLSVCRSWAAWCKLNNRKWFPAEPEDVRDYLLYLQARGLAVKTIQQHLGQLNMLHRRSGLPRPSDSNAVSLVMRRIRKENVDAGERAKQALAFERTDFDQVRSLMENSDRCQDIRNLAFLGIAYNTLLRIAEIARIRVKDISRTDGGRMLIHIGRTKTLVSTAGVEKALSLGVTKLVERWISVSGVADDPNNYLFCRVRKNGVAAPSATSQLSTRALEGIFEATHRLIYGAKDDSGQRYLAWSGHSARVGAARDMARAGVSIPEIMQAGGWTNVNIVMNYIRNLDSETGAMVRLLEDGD

Binder	activity (Cre recombinase [1])	activity (Cre recombinase [2])
mutant loxP #2372 (dsDNA) DNA 1: ATAACTTCGTATAAGGTATCCTATACGAAGTTAT DNA 2: ATAACTTCGTATAGGATACCTTATACGAAGTTAT	0 grade 0-9 final product	–
mutant loxP #4172 (dsDNA) DNA 1: ATAACTTCGTATAATGCATCCTATACGAAGTTAT DNA 2: ATAACTTCGTATAGGATGCATTATACGAAGTTAT	4 grade 0-9 final product	–
mutant loxP #6171 (dsDNA) DNA 1: ATAACTTCGTATAATGTACACTATACGAAGTTAT DNA 2: ATAACTTCGTATAGTGTACATTATACGAAGTTAT	–	6 grade 0-9 final product
mutant loxP #4171 (dsDNA) DNA 1: ATAACTTCGTATAATGCATACTATACGAAGTTAT DNA 2: ATAACTTCGTATAGTATGCATTATACGAAGTTAT	–	4 grade 0-9 final product
mutant loxP #5171 (dsDNA) DNA 1: ATAACTTCGTATAATGTGTACTATACGAAGTTAT DNA 2: ATAACTTCGTATAGTACACATTATACGAAGTTAT	–	6 grade 0-9 final product
